Experiment: yeast display, Sf9 membrane polyspecificity reagent, FACS + sequencing; frameworks hold sequencing errors
Outline: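 Polyreactivity labels are assigned by the sorting gate from which each nanobody was recovered. The gates were low and high (top ~1%), set on anti-HA fluorescence for expression and streptavidin fluorescence for reagent binding. Before sorting, galactose-induced (36–48 hours) yeast display cells were stained for 1 hour at 4 °C with 10% biotinylated, detergent-solubilized Sf9 membrane reagent.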

| Sequence | polyreactivity (PSR sort gate) |
| --- | --- |
| QVQLVESGGGLVQAGGSLRLSCAASGIIFGENAMGWYRQAPGKERELVAAINSVGSTYYADSVKGRFTISRDNAKNTVYLQMNSLKPEDTAVYYCNARLAKVRVKDDYWGQGTQVTVSS | low polyreactivity |
| QVQLVESGGGLVQAGGRLRLSCAASGFIYENAMGWYRQAPGKERELVAAISYSGGCTYYADSVKGRFTISRDNAKNTVYLQMNSLKPEDTAVYVCAADTQGYDYDYWGQGTQVTVSS | low polyreactivity |
| QVQLVESGGGLVQAGGSLRLSCAASGSTSRGNAMGWYRQAPGKERELVAAISYIGGTTYYADSVKGRFTISRDNAKNTVYLQMNSLKPEDTAVYYCAADLYRSILKPDYDYWGQGTQVTVSS | high polyreactivity |
| QVQLVESGGGLVQAGGSLRLICAASGSIFCYAMGWYRQAPGKERELVAGISRGGSTYYADSVKGRFTISRDNAKNTGYLKMNSLKPEDTAVYYCNTAGYYGTPYNYWGQGTQVTVSS | low polyreactivity |
| QVQLVESGGGLVQAGGSLRLSCAASGRIFYYYAMVWYRQAPGKERELVAAITRRGGSTYYADSVKGRFTISRDNAMNTVYLLMNSLKPEDTAVYYCAKPVRTGWLDGDYWGQGTQVTVSS | low polyreactivity |
| QVQLEDSGGGLVQAGGSLRLTSPASGSIFWYYDMGWYRQAPGKERELVAAITVIGSSTNYADSVKGRFTNSRDNAKITVYLQMNRLKPEDTAVYYCAAVRPPTPSRRREDYWGQGTQVTVSS | low polyreactivity |
| QVQLVESGGGLVQAGGSLRLSCAASGSTFAYYAMGWYRHAPGKERELVAAISSGGSTYYADSVKGRFTISRDNAKNTVYLQMNSLKPEDTEVYYCNKLWVGKFKRYEFGYWGQGSQVTVSS | low polyreactivity |
| QVQLVESGGGLVQAGGSLRLSCAASGSTFFYYAMGWYRQAPGKERELVAAITRGSRTKYADSVKGRFTISRDNAKNTVYLQMNSLKPEDTAVYYCAARKNLYPYCYLWWQDYDYWVQGTQVTVSS | high polyreactivity |
| QVQLVESGGGLVQAGGSLRLSCAASGRTLFFYAMGLYRQAPGKERELVAAISSSGTRTYYADSVKGRFTISRDNAKNTVYLQMNSLIPEDTAVYYCNKVKYYRTGGMEYWGQGTQVTVSS | high polyreactivity |
| QVQLVESGGGLVQAGGSLRLSCAASGRTFSYNAMGWYRPAPGKERELVAVITYSGGSTYYADSVKGRFTISRDNAKNTVYLQMNSLKPEDTAVYYCNADGYRPYQNGYDYWGQGTQVTVSS | high polyreactivity |
| QVQLVESGGGLVQAGGSLRLSCAASVSTFPFYSMGWYRQAPGKERELVAAITSGGSTYADSVKGRFTISRDNAKNTVYLQMNSLKPEDTAVYYCAASWPRWWRFGYWGQGTQVTVSS | low polyreactivity |
| QVQLVESGGGLVQAGGSLRLSCAASGRTFKYYAMGWYRQAPGKERELVAAISSRGGSTYYADSVKGRFTISRDNAKNTVYLQMNSLKPEDTAVYYCAKGTYLSTSTVANDYWGQGTQVTVSS | high polyreactivity |
| QVQLVESGGGLVQAGGSLRLSCAASGSTFYTYPMGWYRQAPGKERELVAAISYRGGSTYYADSVKGRFTISRDTAKNTVYLQMNSMKPEDSAVYYCNVVGVVVGTKRGGYDYWGQGTHVTVSS | low polyreactivity |
| QGQLVESGGGLVQAGGSLRLSCAASGRIFVKNAMGWYRQAPGKERELVAAINWRGTSTYYADSVKGRFTISRDNAKNTVYLQMNSLKPEDTAVYYCNRVLGYPYGVDYWGQGTQVTVSS | high polyreactivity |
| QDQLVESGGGLVQAGGSLRLSCAASGRIFYVYAMGWYRQAPGKEREFVASISWSGGSTYYADSVKGRFTISRDNAKNTFYLQLNSLKPEDTSVYYCNARAFTHRYDYWGQGTQVTVSS | low polyreactivity |
| QVQLVESGGGLVQAGGSLRLSCAASGSIFKPYSMGWYRQAPGKERELVAAISTRRSSTYYADSVKGRFTFSRDNAKNTVYLQMNSLIQEDTAVYYCAKRRYLWGYEYDSWGQGTQVNVSS | high polyreactivity |
| QDQLVESGGGLVQAGGSLRLSCAASGRTFGPNAMGWYRQAPGKERELVAAITGGGSTYYADSVKGRFTISRDNAKNTVYLQMNSLKPEDTAVYYCSNRGQGFHFGRDYWGQGTQVTVSS | low polyreactivity |
| QVQLVESGGGLVQAGGSLRLSCAASGLTFGYNAMGWYRQAPGNERELVATISYSGGRTYYADSVKGRFTISRDNAKTTVYLQMNSLKPEDTAVYDCATRQRHWSGEFDYWGQGTQVTVSS | high polyreactivity |
| QVQLVESGGGLVQAGGSLRLSCAASGNTITFNTMAWYRQAPGKEREVVAVISRSGGSTYYADSVKGRFTISRDNAKNTVYLQMNSLKPEDTAVYYCAATGFSYRYFQTRDYWGQGTQVTVSS | high polyreactivity |
| QVQLVESGGGLVQAGGSLRLSCAASGSTFACNAMGWDRQAPGKERELVAAISWSGGSTYYADSVKGRFTISRDNAKNTVYLQMNSLKPEDTAVYYCAARRYASRTGYLYDFWGQGTQVTVSS | high polyreactivity |
| QVQLVESGGGLVQAGGSLRLSCAASGSTYYPNAMGWYRQAPGKERELVAAISRGTRTKYADSVKGRFTISRDNAKNTVYLQMNSLKPEDTAVYYCAVLTYRGRFEYWGQGTQVTVSS | high polyreactivity |
| QVQLVESGGGLVQAGGSLRLSCAASGLTFYSYAMGWYRQAPGKERELVAAITSSDGSTYYADSVKGRFTISRDNAKNTVYLQMNSLKPEDTAVYYCNKDDNSYGLNYWGQGTQVTVSS | low polyreactivity |

| Sequence | polyreactivity (PSR sort gate) |
| --- | --- |
| QVQLVESGGGIVQAGGSLRLSCAASGRIFSKNTMGRYRKAPGKERELVAAIRSRAGSTYYADSVKGRFTISRDNAKNTVYLQMNSLIPEDTAVYYCAVPWFRSVDFDYWGQGTQVTVSS | low polyreactivity |
| QVQLVESGGGLVQAGGSLRLSCAASGLMFSYYAMGWYRQAPGKERELVAAISWNGGSTYYADSVKGRFTISRDNAKNTVYLQMNSLKPEDTAVYYCAVRLDLGWYYYWGQGTQVTVSS | high polyreactivity |
| QVQLVESGGGLVQAGGSLRLSCAASGRIFFANAMGWYRQAPGKERELVAAISWRGGSTYYADSVKGRFTISRDNAKNTFYLQMNSLKPEDTAVYYCNAVTRGYYHEMEYWGQGTQVTVSS | high polyreactivity |
| QVQLVDSGGGLVQAGGSLRLSCAASGSIFDANAMGWYRQAPGKERELVAAITFDSGSTHYADSVKGRFTISRDNAQNTVYLQMNSLKPEDTAVYYCAVRDFNSDYDYWGQGTQVTVSS | low polyreactivity |
| QVQLVESGGGLVQAGGSLRLSCAASGFTFYYYAMGWYRQAPGKERELVAAISSGGRTNYADSVKGRFTISRDNAKNTVYLQMNSLKPEDTAVYYCAAQYRNYFPYRVVRQGVGYWGQGTQVTVSS | high polyreactivity |
| QVQLVESGGGLVQAGGSLRLSCAASGFIFSYYAMGWYRQAPGKERELLAAISRNGGRTYYADSVKGRFTISRDNAKNTVYLQMNSLKPEDTAVYYCAATTYRTSSYIRYGSPKHDDYWGQGTQVTVSS | high polyreactivity |
| QVQLVESGGGLVQAGGSLRLSCAASGSIFYTYAMGGYRPAPGKERELVAAISSGGSTTYADSVKGRFTISRDNAKNTVYLQMTSLKPEDTAVYYCNTSYRKKKRYYYWGQGTQVTVSS | high polyreactivity |
| QVQLVESGGGLVQAGGRHRLSCAASGYIFKYYAMGWYRQAPGKERELVAAISRSGDSTYYADSVKGRFTISRDHAKNTVYLQMNSLKPEDTAVYYCNARYWHGPTGSDYWGQGTQVTVSS | high polyreactivity |
| QVQLVESGGGLVQAGGSLRLSCAASGSIFRVYAMGWYRQAPGKERELVAAITRGGSTYADSVKGRFTISRDNAKNTVYLQMNSLKPEDTAVYYCAAQRTLYRSGFDSWGQGTQVTVSS | high polyreactivity |
| QVQLVESGGGLVQAGGSLRLSCAASGRTLARNAMGWYRQAPGKERELVARIRDSGGSKYYADSVKGRFTISRDNAKNTVYLQMNSLKPEDTAVYYCAARSRLVYSYYTYWGQGTQVTVSS | high polyreactivity |
| QVHLVESGGGLVQAGGSLRLSCAASGSTFKRYAMGWYRPAPGKERELVAAIRRGGITNYADSVKGRFTISRDNAKNTVYLQMNSLKPEDTAVYYCAKDGVTYPYSYEYDYWGQGTQVTVSS | low polyreactivity |
| QVQLVESGGGLVQAGGSLRLSCAASGRTFDDYAMGWSRQAPGTERELVAAITSGGSTYYADSVKGRFTISRDNAKNTVYLQMNSLKPEDTAVYYCNARSPRPYAYRPYDYWGQGTQVTVSS | low polyreactivity |
| QVQLVESGGGLVQAGGSLRLSCAASGRIFYSYAMGWYRQAPGNERELVAAIPRSGGRTYYADSVKGRFTISRDKAKNTGYLQMNCLKPEDTAVYDCATVWPSISPYPGYNYWGQGTQVTVSS | high polyreactivity |
| QVQLVESGGGLVQAGGSLRLSCAASGGIFVFYGLGWYRQAPGKERELVAAINGNGDDTYYADSVKGRFTISRDNAKNTVYLQMNSLKPEDTAVYYCAAESRGDGDGYWGQGTQVTVSS | low polyreactivity |
| QVQLVESGGGLVQAGGSLRLSCAASGRTFSVYAMGWYRQATGKEREFVAAISFSGGRTYYADSVKGRFTISRDNAKNTVYLQINSLKPEDTAVYYCAKRGSYYNPMGYWGQGTQVTVSS | high polyreactivity |
| QVQLVESAAGLVQAGGSLRLSCPASARILRYYAMGWYRQAPGKERELVAAISPRGGRTYYADSVKGRFTISRDNAKNTVYLQMNSLKPEDTAVYYCASPGYFTTPSGSYDYWGQGTQVTVSS | high polyreactivity |
| QVQLVESGGRLVQAGGSLRLSCDASGRTSRRNAMGWYRQAPGKERELVAGITWRGGSTYYADSVKGRFTISRDNAKNTVYLQMNSLKPEDPEVYYCAAYTYPHEYDYWGQGTQVTVSS | low polyreactivity |
| QVQLVESGGGLVQAGGSLRLSCAAYGNTFYRNAMGWYRQAPGKERELVAAITFSTGRTYYADSVKGRFTISRDNAKNTVYLQLNSLKPEDTAVYYCAAFYRGGDYWGQGTQVTVSS | high polyreactivity |
| QVQLVESGGGLVQAGGSLRLSCAASGRIFALYAMGWYRQAPGKERELVAAISGGGGSTYYADSVKGRFTISRDNAKNSVYLQMNSLKPEDTAVYYCAARGLSGSSVKYGYWGQGTQVTVSS | high polyreactivity |
| QVQLVESVGGLVQAGGSLRLSCAASGSTFQGNAMGWYIQAPGKERELVAAISRSGGSTYADSVKGRFTISRDNAKNTVYLQMNSLKPEDTAVYYCAAYSGVGYLWFDYWGLGTQVTVSS | low polyreactivity |
| QVQLVESGGGLVQAGGSLRLSCAASGSIFGYAMGWYRQAPGKERELVAAISFSGVSTYYADSVKGRFTISRDNAKNTVYLQMNSLKPEDTAVYYCNAYSDGDEDYWGQGTQVTVSS | low polyreactivity |
